# Measurements as given in IntAct's records for PubMed 21157427.
# B1: Serine/arginine-rich splicing factor 2 (Homo sapiens), Q01130 (parent)
# chain: MSYGRPPPDVEGMTSLKVDNLTYRTSPDTLRRVFEKYGRVGDVYIPRDRYTKESRGFAFVRFHDKRDAEDAMDAMDGAVLDGRELRVQMARYGRPPDSHHSRRGPPPRRYGGGGYGRRSRSPRRRRRSRSRSRSRSRSRSRSRYSRSKSRSRTRSRSRSTSKSRSARRSKSKSSSVSRSRSRSRSRSRSRSPPPVSKRESKSRSRSKSPPKSPEEEGAVSS
# Variants of: B1
# Details: with kat5_human KAT5, Q92993
# Chain of kat5_human KAT5, Q92993 (Q92993 whole entry, looked up): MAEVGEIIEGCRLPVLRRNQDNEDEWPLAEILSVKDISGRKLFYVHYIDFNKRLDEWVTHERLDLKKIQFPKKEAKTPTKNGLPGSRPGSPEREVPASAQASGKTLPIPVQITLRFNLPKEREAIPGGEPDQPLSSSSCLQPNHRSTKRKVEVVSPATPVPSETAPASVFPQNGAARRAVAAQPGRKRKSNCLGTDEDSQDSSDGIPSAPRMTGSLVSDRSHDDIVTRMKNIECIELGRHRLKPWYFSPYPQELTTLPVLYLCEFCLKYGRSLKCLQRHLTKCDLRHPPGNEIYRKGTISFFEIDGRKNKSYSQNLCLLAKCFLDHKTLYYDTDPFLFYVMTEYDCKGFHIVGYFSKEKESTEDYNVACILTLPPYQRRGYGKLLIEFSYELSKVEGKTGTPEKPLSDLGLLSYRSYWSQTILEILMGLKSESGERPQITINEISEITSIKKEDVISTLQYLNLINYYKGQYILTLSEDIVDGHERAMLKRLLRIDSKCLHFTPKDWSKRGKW
row,Variant,effect of a mutation on the interaction
1,K52R,disrupting interaction
